Data on 25 molecules can be found in patent publication US20260151494A1 (ARO BIOTHERAPEUTICS, published 2026).

The target in assay [1] is T1, human CD71 extracellular domain (human, UniProt P02786 89-760).
T1 construct: also called hCD71; human CD71-ECD
As to the kind of experiment: primary ELISA. Also: test concentration or dose not given here.

The target of assay [2] is T2, apical domain of cynomolgus CD71 (cynomolgus, UniProt A0A2K5X958 189-383).
T2 construct: domain: apical domain; also called Cyno apical domain
T2 sequence (A0A2K5X958 entry or part of it): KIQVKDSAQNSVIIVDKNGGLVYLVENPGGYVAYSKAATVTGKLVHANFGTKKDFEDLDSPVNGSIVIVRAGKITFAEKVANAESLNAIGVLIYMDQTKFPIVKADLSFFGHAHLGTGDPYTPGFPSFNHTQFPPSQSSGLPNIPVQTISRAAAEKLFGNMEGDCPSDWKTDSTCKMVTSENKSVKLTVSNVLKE
As to the kind of experiment: primary ELISA. Also: test concentration or dose not given here.

Assay [3] concerns the target T1, human CD71 extracellular domain. As to the kind of experiment: primary ELISA, signal ratio to HSA. On the technique in general: In an ELISA, binding on a coated surface is turned into a signal by an enzyme label.
For assay [4], the target named is T2, apical domain of cynomolgus CD71. The assay can be described thus: primary ELISA, signal ratio to HSA.

T1 sequence (P02786 89-760): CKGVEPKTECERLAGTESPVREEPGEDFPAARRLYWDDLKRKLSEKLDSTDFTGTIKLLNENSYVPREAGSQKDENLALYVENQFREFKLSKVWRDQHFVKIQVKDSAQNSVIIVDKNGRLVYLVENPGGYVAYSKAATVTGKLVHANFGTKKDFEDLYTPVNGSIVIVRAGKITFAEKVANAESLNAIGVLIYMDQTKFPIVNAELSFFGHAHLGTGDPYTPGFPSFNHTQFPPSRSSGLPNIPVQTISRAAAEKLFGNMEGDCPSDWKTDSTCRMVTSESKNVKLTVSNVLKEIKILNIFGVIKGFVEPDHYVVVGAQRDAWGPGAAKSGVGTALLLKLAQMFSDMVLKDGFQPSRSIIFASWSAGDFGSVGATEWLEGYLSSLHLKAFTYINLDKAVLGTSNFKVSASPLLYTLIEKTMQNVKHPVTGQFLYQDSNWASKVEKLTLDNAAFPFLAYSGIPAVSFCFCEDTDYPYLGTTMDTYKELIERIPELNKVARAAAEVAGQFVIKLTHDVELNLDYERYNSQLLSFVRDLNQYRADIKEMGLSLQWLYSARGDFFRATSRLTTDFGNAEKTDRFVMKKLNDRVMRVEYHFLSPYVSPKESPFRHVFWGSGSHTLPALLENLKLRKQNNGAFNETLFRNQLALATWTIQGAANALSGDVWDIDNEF

B1: CD71-binding FN3 domain of SEQ ID NO: 153 (designed binder)
chain: MSLPAPKNLVVSRVTEDSARLSWTAPDAAFDSFYIAYAEPRPDGEAIVLAVPGSERSYDLTGLKPGTEYSVLIHGVKGGLLSSPLGADFTT
Consider B1, for which the RLU in assay [1] amounted to 4.57e+06 RLU; in assay [2] it was 4.11e+06 RLU. The “hCD71:HSA” value in assay [3] was found to be 141. Further, the “Cyno apical domain:HSA” value in assay [4] was found to be 127.

B2: CD71-binding FN3 domain of SEQ ID NO: 165 (designed binder)
chain: MSLPAPKNLVVSRVTEDSARLSWTAPDAAFDSFYIAYAEPRPDGEAILLEVPGSERSYDLAGLKPGTEYSVLIHGVKGGLLSSPLGAEFTT
On to B2, for which the RLU in assay [1] was 4.25e+06 RLU; in assay [2], 3.62e+06 RLU. In addition, the “hCD71:HSA” value in assay [3] was found to be 305. Moreover, the “Cyno apical domain:HSA” value in assay [4] was 259.

B3: CD71-binding FN3 domain of SEQ ID NO: 125 (designed binder)
chain: MSLPAPKNLVVSRVTEDSARLSWTAPDAAFDSFYIAYAEPRPDGEAIILLVPGSERSYDLTGLKPGTEYSVLIHGVKGGLLSSPLHAHFTT
Take B3: the values for the RLU in assay [1] and in assay [2] were 3.64e+06 RLU and 5.09e+06 RLU, respectively. In addition, in assay [3], the “hCD71:HSA” value was 109. Besides, the “Cyno apical domain:HSA” value in assay [4] was found to be 153.

B4: CD71-binding FN3 domain of SEQ ID NO: 123 (designed binder)
chain: MSLPAPKNLVVSRVTEDSARLSWTAPDAAFDSFAIRYWELRATGEAIPLSVPGSERSYDLTGLKPGTEYHVAISGVKGGKSSYPLRASFTT
As for B4, the results for the RLU in assay [1] and in assay [2] were 4.51e+06 RLU and 5.2e+06 RLU, respectively. Also, in assay [3], the “hCD71:HSA” value turned out to be 108. For the same molecule, in assay [4], the “Cyno apical domain:HSA” value is 125.

B5: CD71-binding FN3 domain of SEQ ID NO: 195 (designed binder)
chain: MSLPAPKNLIVSRVTEDSARLSWTAPDAAFDSFEIGYFENLYLGEAIVLTVPGSERSYDLTGLKPGTEYWVQIGGVKGSNWSAPLSAIFTT
For B5, the RLU in assay [1] came out at 2.88e+06 RLU; in assay [2], 4.2e+06 RLU. The “hCD71:HSA” value in assay [3] came out at 106. In addition, the “Cyno apical domain:HSA” value in assay [4] stood at 155.

B6: CD71-binding FN3 domain of SEQ ID NO: 217 (designed binder)
chain: MSLPAPKNLVVSRVTEDSARLSWTAPDAAFDSFEIAYFEQTYTGEAIVLTVPGSERSYDLTGLKPGTEYWVAIGGVKGGLWSLPLSAIFTT
As to B6, the RLU in assay [1] was 2.33e+06 RLU; in assay [2], 3.98e+06 RLU. In addition, in assay [3], the “hCD71:HSA” value stood at 43. Also, the “Cyno apical domain:HSA” value in assay [4] is 74.

B7: CD71-binding FN3 domain of SEQ ID NO: 214 (designed binder)
chain: MSLPAPKNLVVSRVTEDSARLSWTAPDAAFDSFEIDYGEYSQAGEAIGLLVPGSERSYDLTGLKPGTEYWVQIGGVKGGNWSAPLSAIFTT
On to B7, for which the RLU was determined as 1.01e+06 RLU in assay [1] and 4.2e+06 RLU in assay [2]. For the same molecule, the “hCD71:HSA” value in assay [3] came out at 36. Also, the “Cyno apical domain:HSA” value in assay [4] was 148.

B8: CD71-binding FN3 domain of SEQ ID NO: 211 (designed binder)
chain: MSLPAPKNLVVSRVTEDSARLSWTAPDAAFDSFEIVYAEPVRFGEAIVLTVPGSERSYDLTGLKPGTEYWVQIGGVKGGEWSSLLSAIFTT
For the molecule B8, the RLU in assay [1] turned out to be 2.02e+06 RLU; in assay [2], 4.67e+06 RLU. Further, the “hCD71:HSA” value in assay [3] was 76. Besides, the “Cyno apical domain:HSA” value in assay [4] worked out at 177.

B9: CD71-binding FN3 domain of SEQ ID NO: 207 (designed binder)
chain: MSLPAPKNLVVSRVTEDSARLSWTAPDAAFDSFEIGYWENAYKGEAIVLTVPGSERSYDLTGLKPGTEYVVFIGGVKGGVWSVPLSAISTT
As for B9, the RLU in assay [1] is 3.58e+06 RLU; in assay [2], 4.94e+06 RLU. Also, in assay [3], the “hCD71:HSA” value worked out at 22. The “Cyno apical domain:HSA” value in assay [4] is 31.

B10: CD71-binding FN3 domain of SEQ ID NO: 206 (designed binder)
chain: MSLPAPKNLVASRVTEDSARLSWTAPDAAFDSFEIGYFENLYLGEAIVLTVPGSERSYDLTGLKPGTEYWVQIGGVKGGNWSAPLSAIFTT
For B10, the RLU worked out at 3.9e+06 RLU in assay [1] and 5.33e+06 RLU in assay [2]. The “hCD71:HSA” value in assay [3] was found to be 49. The “Cyno apical domain:HSA” value in assay [4] worked out at 67.

B11: CD71-binding FN3 domain of SEQ ID NO: 209 (designed binder)
chain: MSLPAPKNLVVSRVTEDSARLSWTAPDAAFDSFEIAYFERTWFGEAIVLTVPGSERSYDLTGLKPGTEYWVQIGGVKGGDWSRPLSAIFTT
In the case of B11, the values for the RLU in assay [1] and in assay [2] were 4.27e+06 RLU and 5.07e+06 RLU, respectively. For the same molecule, in assay [3], the “hCD71:HSA” value was 356. Also, the “Cyno apical domain:HSA” value in assay [4] is 423.

B12: CD71-binding FN3 domain of SEQ ID NO: 208 (designed binder)
chain: MSLPAPKNLVVSRVTEDSARLSWTAPDAAFDSFFIGYFENLYLGEAIVLTVPGSERSYDLTGLKPGTEYWVQIGGVKGGNWSAPLSAIFTT
For B12, the RLU in assay [1] amounted to 4.06e+06 RLU; in assay [2], 5.45e+06 RLU. Besides, in assay [3], the “hCD71:HSA” value stood at 142. Also, the “Cyno apical domain:HSA” value in assay [4] amounted to 19.

B13: CD71-binding FN3 domain of SEQ ID NO: 201 (designed binder)
chain: MSLPAPKNLVVSRVTEDSARLSWTAPDAAFDSFEIAYFEGTFHGEAIVLFVPGSERSYDLTGLKPGTEYAVWIGGVKGGDYSRPLSAAFTT
Regarding B13, the RLU in assay [1] worked out at 1.59e+06 RLU; in assay [2], 3.01e+06 RLU. Also, the “hCD71:HSA” value in assay [3] worked out at 40. Besides, the “Cyno apical domain:HSA” value in assay [4] was 76.

B14: CD71-binding FN3 domain of SEQ ID NO: 200 (designed binder)
chain: MSLPAPKNLVVSRVTEDSARLSWTAPDAAFDSFEIGYFENLYLGEAIVLTVPGSERSYDLTGLKPGTEYWVQIGGVKGSNWSAPLSAIFTT
As to B14, the RLU in assay [1] is 3.49e+06 RLU; in assay [2] it was 4.72e+06 RLU. Further, the “hCD71:HSA” value in assay [3] turned out to be 127. In assay [4], the “Cyno apical domain:HSA” value came out at 172.

B15: CD71-binding FN3 domain of SEQ ID NO: 213 (designed binder)
chain: MSLPAPKNLVVSRVTEDSARLSWTAPDAAFDSFEIGYFENLYLGEAIVLTVPGSERSYDLTGLKPGTEYWVQIGGAKGGNWSAPLSAIFTT
For B15, the RLU in assay [1] stood at 2.46e+06 RLU; in assay [2], 4.74e+06 RLU. Moreover, the “hCD71:HSA” value in assay [3] is 130. Besides, the “Cyno apical domain:HSA” value in assay [4] is 251.

B16: CD71-binding FN3 domain of SEQ ID NO: 199 (designed binder)
chain: MSLPAPKNLVVSRVTEDSARLSWTAPDAAFDSFEIGYFENLYLGEAIVLTVPGYERSYDLTGLKPGTEYWVQIGGVKGGNWSAPLSAIFTT
For B16, the RLU is 4.45e+06 RLU in assay [1] and 4.9e+06 RLU in assay [2]. Besides, the “hCD71:HSA” value in assay [3] worked out at 170. In assay [4], the “Cyno apical domain:HSA” value is 187.

B17: CD71-binding FN3 domain of SEQ ID NO: 202 (designed binder)
chain: MSLPAPKNLVVSRVTEDSARLSWTAPDAAFDSFEIGYFENLYLGEAIVLTVPGSERSYDLTGLKPGTEYYVHIGGVKGGIWSSPLSAIFTT
In the case of B17, the RLU amounted to 1.11e+06 RLU in assay [1] and 3.51e+06 RLU in assay [2]. The “hCD71:HSA” value in assay [3] was determined as 58. Besides, the “Cyno apical domain:HSA” value in assay [4] is 184.

B18: CD71-binding FN3 domain of SEQ ID NO: 215 (designed binder)
chain: MSLPAPKNLVVSRVTEDSARLSWTAPDAAFDSLEIGYFENLYLGEAIVLTVPGSERSYDLTGLKPGTEYWVQIGGVKGGNWSAPLSAIFTT
With B18, the RLU in assay [1] was determined as 3.34e+06 RLU; in assay [2] it was 4.95e+06 RLU. Further, the “hCD71:HSA” value in assay [3] came to 48. Moreover, in assay [4], the “Cyno apical domain:HSA” value came out at 71.

B19: CD71-binding FN3 domain of SEQ ID NO: 203 (designed binder)
chain: MSLPAPKNLVVSRVTEDFARLSWTAPDAAFDSFEIAYWEQSYTGEAIVLTVPGSERSYDLTGLKPGTEYFVHIGGVKGGVWSTPLSAIFTT
With B19, the RLU worked out at 2.25e+06 RLU in assay [1] and 4.85e+06 RLU in assay [2]. In assay [3], the “hCD71:HSA” value was determined as 168. Further, the “Cyno apical domain:HSA” value in assay [4] came out at 362.

B20: CD71-binding FN3 domain of SEQ ID NO: 205 (designed binder)
chain: MSLPAPKNLVVSRVTEDSARLSWTAPDAAFDSFEIGYFENLYLGEAIHLFVPGSERSYDLTGLKPGTEYNVTIQGVKGGFPSEPLIANFTT
Consider B20, for which the RLU in assay [1] is 1.02e+06 RLU; in assay [2], 4.1e+06 RLU. In addition, the “hCD71:HSA” value in assay [3] worked out at 53. The “Cyno apical domain:HSA” value in assay [4] is 213.

B21: CD71-binding FN3 domain of SEQ ID NO: 216 (designed binder)
chain: MSLPAPKNLVVSRVTEDSARLSWTAPDAAFDSFEIAYFEQTYTGEAIVLTVPGSERSYDLTGLKPGTEYWVQIGGVKGGTWSAPLSAISTT
Turning to B21, the RLU in assay [1] came to 3.37e+06 RLU; in assay [2] it was 5.04e+06 RLU. For the same molecule, the “hCD71:HSA” value in assay [3] is 80. In assay [4], the “Cyno apical domain:HSA” value turned out to be 119.

B22: CD71-binding FN3 domain of SEQ ID NO: 212 (designed binder)
chain: MSLPAPKNLVVSRVTEDSARLSWTAPDAAFDSFEIGYFENLYLGEAIVLTVPGSERYYDLTGLKPGTEYWVQIGGVKGGNWSAPLSAIFTT
Consider B22, for which the results for the RLU in assay [1] and in assay [2] were 2.82e+06 RLU and 5.13e+06 RLU, respectively. Further, in assay [3], the “hCD71:HSA” value is 97. In assay [4], the “Cyno apical domain:HSA” value came to 176.

B23: CD71-binding FN3 domain of SEQ ID NO: 128 (designed binder)
chain: MSSLPAPKNLVVSRVTEDSARLSWTAPDAAFDSFEIGYFENLYLGEAIVLTVPGSERSYDLTGLKPGTEYWVQIGGVKGGNWSAPLSAIFTT
Consider B23, for which the RLU in assay [1] was 4.62e+06 RLU; in assay [2] it was 5.56e+06 RLU. The “hCD71:HSA” value in assay [3] worked out at 215. The “Cyno apical domain:HSA” value in assay [4] stood at 259.

B24: CD71-binding FN3 domain of SEQ ID NO: 121 (designed binder)
chain: MSLPAPKNLVVSRVTEDSARLSWTAPDAAFDSFFIGYLEPQPPGEAITLYVPGSERSYDLTGLKPGTEYNVTIQGVKGGFPSAPLSAIFTT
For B24, the RLU in assay [1] is 5.42e+06 RLU; in assay [2], 6.22e+06 RLU. Besides, the “hCD71:HSA” value in assay [3] was 109. Moreover, the “Cyno apical domain:HSA” value in assay [4] was found to be 125.

B25: CD71-binding FN3 domain of SEQ ID NO: 127 (designed binder)
chain: MSLPAPKNLVVSRVTEDSARLSWTAPDAAFDSFFIGYLEPQPPGEAITLLVPGSERSYDLTGLKPGTEYNVTIQGVKGGFPSGPLQASFTT
As for B25, the results for the RLU in assay [1] and in assay [2] were 4.73e+06 RLU and 6.52e+06 RLU, respectively. In assay [3], the “hCD71:HSA” value worked out at 188. In addition, the “Cyno apical domain:HSA” value in assay [4] came to 259.
